Where no end group is shown, it is not given here. [ ]: non-standard residue; d: D form. AEEA = NCCOCCOCC(=O)O
Legend:
[1] = molecular target: 3D5F7 monoclonal antibody, Fab' fragment coupled to alkaline phosphatase; assay: VIDAS one-step sandwich immunoassay; capture 19C7+B90 on tip, detection 3D5F7+7B9 Fab'-alkaline phosphatase; peptide at 2 ng/mL
[2] = molecular target: 3D5F7 monoclonal antibody, Fab' fragment coupled to alkaline phosphatase; assay: VIDAS one-step sandwich immunoassay; capture 19C7+B90 on tip, detection 3D5F7+7B9 Fab'-alkaline phosphatase; (10 ng/mL peptide)
[3] = molecular target: 3D5F7 monoclonal antibody, Fab' fragment coupled to alkaline phosphatase; assay: VIDAS one-step sandwich immunoassay; capture 19C7+B90 on tip, detection 3D5F7+7B9 Fab'-alkaline phosphatase; compound (5 ng/mL peptide)
[4] = molecular target: 3D5F7 monoclonal antibody, Fab' fragment coupled to alkaline phosphatase; assay: VIDAS one-step sandwich immunoassay; capture 19C7+B90 on tip, detection 3D5F7+7B9 Fab'-alkaline phosphatase; compound at (1 ng/mL peptide)
[5] = molecular target: 3D5F7 monoclonal antibody, Fab' fragment coupled to alkaline phosphatase; assay: VIDAS one-step sandwich immunoassay; capture 19C7+B90 on tip, detection 3D5F7+7B9 Fab'-alkaline phosphatase; compound (50 ng/mL peptide)
[6] = molecular target: 3D5F7 monoclonal antibody, Fab' fragment coupled to alkaline phosphatase; assay: VIDAS one-step sandwich immunoassay; capture 19C7+B90 on tip, detection 3D5F7+7B9 Fab'-alkaline phosphatase; compound at (20 ng/mL peptide)
[7] = molecular target: 3D5F7 monoclonal antibody, Fab' fragment coupled to alkaline phosphatase; assay: VIDAS one-step sandwich immunoassay; capture 19C7+B90 on tip, detection 3D5F7+7B9 Fab'-alkaline phosphatase; peptide at (500 ng/mL peptide)
[8] = molecular target: 3D5F7 monoclonal antibody, Fab' fragment coupled to alkaline phosphatase; assay: VIDAS one-step sandwich immunoassay; capture 19C7+B90 on tip, detection 3D5F7+7B9 Fab'-alkaline phosphatase; peptide (20 ng/mL peptide)
[9] = molecular target: 3D5F7 monoclonal antibody, Fab' fragment coupled to alkaline phosphatase; assay: VIDAS one-step sandwich immunoassay; capture 19C7+B90 on tip, detection 3D5F7+7B9 Fab'-alkaline phosphatase; peptide at (4000 ng/mL peptide)
[10] = molecular target: 3D5F7 monoclonal antibody, Fab' fragment coupled to alkaline phosphatase; assay: VIDAS one-step sandwich immunoassay; capture 19C7+B90 on tip, detection 3D5F7+7B9 Fab'-alkaline phosphatase; peptide (200 ng/mL peptide)
[11] = molecular target: 3D5F7 monoclonal antibody, Fab' fragment coupled to alkaline phosphatase; assay: VIDAS one-step sandwich immunoassay; capture 19C7+B90 on tip, detection 3D5F7+7B9 Fab'-alkaline phosphatase; peptide at (1000 ng/mL peptide)
[12] = molecular target: 3D5F7 monoclonal antibody, Fab' fragment coupled to alkaline phosphatase; assay: VIDAS one-step sandwich immunoassay; capture 19C7+B90 on tip, detection 3D5F7+7B9 Fab'-alkaline phosphatase; peptide at (2000 ng/mL peptide)
[13] = molecular target: 3D5F7 monoclonal antibody, Fab' fragment coupled to alkaline phosphatase; assay: VIDAS one-step sandwich immunoassay; capture 19C7+B90 on tip, detection 3D5F7+7B9 Fab'-alkaline phosphatase; peptide (50 ng/mL peptide)
[14] = molecular target: 3D5F7 monoclonal antibody, Fab' fragment coupled to alkaline phosphatase; assay: VIDAS one-step sandwich immunoassay; capture 19C7+B90 on tip, detection 3D5F7+7B9 Fab'-alkaline phosphatase; peptide (100 ng/mL peptide)

signal in RFV [1] [RFV] | signal in RFV [2] [RFV] | signal in RFV [3] [RFV] | signal in RFV [4] [RFV] | signal in RFV [5] [RFV] | signal in RFV [6] [RFV] | signal in RFV [7] [RFV] | signal in RFV [8] [RFV] | signal in RFV [9] [RFV] | signal in RFV [10] [RFV] | signal in RFV [11] [RFV] | signal in RFV [12] [RFV] | signal in RFV [13] [RFV] | signal in RFV [14] [RFV] | Binder
360 | 1690 | 882 | 175 | 6210 | 3280 | – | – | – | – | – | – | – | – | ATEPHAKKK[AEEA][AEEA]CAGLGFAELQDL-NH2 (peptide, part only; not given: polyclonal rabbit IgG carrier, part only, not fully specified (some residues); numbers in words are those of the source; also: Cys thioether-coupled to IgG carrier, about 10 peptides per IgG) [Compound 3 (Peptide 1 - IgG)]
– | – | – | – | – | – | 1820 | 2 | 7540 | 356 | 3800 | 6140 | 21 | 69 | ATEPHAKKKCAGLGFAELQDL ((Ado)2 (dimer of 8-amino-3,6-dioxaoctanoic acid) between ATEPHAKKK and C and between C and AGLGFAELQDL; C-terminal amide) [Noncoupled peptide 1]

Reference: patent publication US11193929
